This passage reports reduced susceptibility (fold; neutralization) and reduced susceptibility (fold; neutralization assays using pseudotyped VSV) results from patent publication US20210395345A1.

Experiment in all cases: cell-based or functional assay
Experiment [1] concerns the target SARS-CoV-2 spike protein with K444N (SARS-CoV-2) (UniProt P0DTC2).
Experiment [2] concerns the target SARS-CoV-2 spike protein with V445A (SARS-CoV-2) (UniProt P0DTC2).
The target in experiment [3] is SARS-CoV-2 spike protein with K444T (SARS-CoV-2) (UniProt P0DTC2).
The target in experiment [4] is SARS-CoV-2 spike protein with N439K (SARS-CoV-2) (UniProt P0DTC2).
In experiment [5] the target is SARS-CoV-2 spike protein with K444Q (SARS-CoV-2) (UniProt P0DTC2).

As for mAb10987 (antibody), the reduced susceptibility (fold; neutralization) in experiment [1] is more than 755 fold; in experiment [2], 548 fold; in experiment [3], more than 1030 fold; in experiment [5] it was more than 548 fold. In experiment [4], this substance came in with a reduced susceptibility (fold; neutralization assays using pseudotyped VSV) of 463 fold.
